Measurements: patent publication US20150266963A1 (ARGEN X B V, published 2015)
Residue numbers refer to the chain shown, from its start.

T1: recombinant human CD70 (Flag-TNC-CD70) (human, UniProt P32970 39-193)
T1 construct: extracellular domain; Captured by anti-Flag mAb in ELISA; as 'recombinant human CD70' immobilised on Biacore CM5 chips; TNC is for trimerisation; also called recombinant CD70; human recombinant CD70; not shown: Flag tag and TNC trimerisation domain
T1 sequence (looked up): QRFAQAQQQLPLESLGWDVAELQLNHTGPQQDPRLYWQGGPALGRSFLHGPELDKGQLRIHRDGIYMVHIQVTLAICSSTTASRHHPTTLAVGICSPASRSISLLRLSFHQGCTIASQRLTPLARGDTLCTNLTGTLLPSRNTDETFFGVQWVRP

T2: recombinant human CD27 Fc chimera (CD27-Fc) (human, UniProt P26842 21-192)
T2 construct: Bought reagent; also called recombinant CD27-Fc; Fc part of the bought chimera not given
T2 sequence (looked up): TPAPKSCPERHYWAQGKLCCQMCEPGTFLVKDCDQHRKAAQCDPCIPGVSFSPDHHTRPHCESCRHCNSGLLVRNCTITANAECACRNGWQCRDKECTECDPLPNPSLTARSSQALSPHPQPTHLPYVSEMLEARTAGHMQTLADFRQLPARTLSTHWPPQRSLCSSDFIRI

T3: human CD70 expressed on the surface of cells (human, UniProt P32970 1-193)
T3 sequence (looked up): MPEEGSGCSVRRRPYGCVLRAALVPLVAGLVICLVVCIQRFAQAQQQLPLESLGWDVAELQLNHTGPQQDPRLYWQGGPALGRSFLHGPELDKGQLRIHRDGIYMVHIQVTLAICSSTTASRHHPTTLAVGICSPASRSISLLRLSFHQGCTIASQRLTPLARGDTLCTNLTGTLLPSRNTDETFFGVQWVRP

B1: 57B6 Fab (Fab, V domains shown)
VH: QLQLVESGGGLVQPGGSLRLSCAASGFSFSHYAMSWVRQAPGKGLEWVSGDNTYDGGTRYQDSVKGRFTISRDNGKNTLYLQMNSLKPEDTAVYYCAKDTGRGIMGEYGMDYWGKGTLVTVSS
VL: QTVVTQEPSLSVSPGGTVTLTCGLKSGSVTSSNYPAWYQQTPGQAPRLLIYNTNSRHSGVPSRFSGSISGNKAALTITGAQPEDEADYYCALYMGSGSANAMFGGGTHLTVLG
notes: Llama-derived Fab
B2: 9B2 Fab (Fab, V domains shown)
VH: QLQVVESGGGLMQPGGSLRLSCAASGFTFSGSAMSWVRQAPGKGLEWVSSIYSHSMYTYYADSVKSRFTISTDNAKNTLYLQMNSLKPDDTAVYYCAASSDYEGLFVSWGQGTQVTVSS
VL: QAVLTQPPSLSASPGSSVRLTCTLNSANSVGSYDISWYQQKAGSPPRYLLYYYSDSLSHQGSGVPSRFSGSTDASANAGLLLISGLQPEDEADYYCSAYNRGSHVFGGGTKLTVLG
notes: Llama-derived Fab
B3: 9G2 Fab (Fab, V domains shown)
VH: B2 VH with L2V, V4L, G31S, H54D, M56S, A98G, L105S, V107A
VL: B2 VL with A2S, L4V, N25S, A27G, S32N, L57V, S58K, T72S, N100K, R101S
notes: Llama-derived Fab
B4: 9E1 Fab (Fab, V domains shown)
VH: EVQLQESGGGVVQPGGSLRLSCAASGFTFDDYAMSWVRQAPGKGLEWVSSIYMYDSSTYYADSVKGRFTISTDNAKNTVYLQMNSLKSEDTAVYYCAKDINRSYGSSWSHFGPIFSSWGQGTQVTVSS
VL: QAVVTQEPSLSVSPGGTVTLTCGLTSGSVTSSNYPDWYQQTPGQAPRLLIYNTNSRHSGVPSRFSGSISGNKAALTITGAQPEDEADYYCNLYMGSGGSKVFGGGTKLTVLG
notes: Llama-derived Fab
B5: 5F4 Fab (Fab, V domains shown)
VH: EVQVQESGGGLVHPGGSLKLSCAASGFTFDTYAMSWVRQAPGKGLEWVSAISWSGGETFYAESMKGRFTISRNNAKNTLYLQMNSLKSEDTAVYYCARGMGLAEGLTDWGQGTQVTVSS
VL: QAVVTHPPSLSASPGSSVRLTCTLISGDNIGGYDISWYQQKTGSPPRYLLYYYSDSYKHQSSGVPSRFSGSKDASANAGLLLISGLQSEDEADYYCSAYKSGSYKAPVFGGGTHLTVLG
notes: Llama-derived Fab
B6: human-mouse CD70 chimera chim-4 (Flag-TNC-CD70) (ligand, not shown: small tags and cut ends)
chain: HPEPHTAELQLNLTVPRKDPTLRWGAGPALGRSFTHGPELEEGHLRIHQDGLYRLHIQVTLANCSSPGSTLQHRATLAVGICSPAAHGISLLRGRFGQDCTVALQRLTYLVHGDVLCTNLTGTLLPSRNTDETFFGVQWVRP
notes: also called chimera 4
B7: human-mouse CD70 chimera chim-1 (Flag-TNC-CD70) (ligand)
chain: HPEPHTAELQLNLTVPRKDPTLRWGAGPALGRSFLHGPELDKGQLRIHRDGIYMVHIQVTLAICSSTTASRHHPTTLAVGICSPASRSISLLRLSFHQGCTIASQRLTPLARGDTLCTNLTGTLLPSRNTDETFFGVQWVRP
modifications: Soluble homotrimer held by the TNC domain; one CD70 ECD chain is given.
notes: also called chimera 1; not shown: N-terminal Flag tag, TNC (tenascin-C) trimerisation domain and any linkers of the Flag-TNC-CD70 construct
B8: human-mouse CD70 chimera chim-2.4 (Flag-TNC-CD70) (ligand, not shown: small tags and cut ends)
chain: B7 chain with L35T, D41E, K42E, Q44H, R49Q, I52L, M54R, V55L
notes: also called chimera 2.4
B9: human-mouse CD70 chimera chim-2.1 (Flag-TNC-CD70) (ligand)
chain: B7 chain with L35T
modifications: Soluble homotrimer held by the TNC domain; one CD70 ECD chain is given.
notes: also called chimera 2.1; not shown: N-terminal Flag tag, TNC (tenascin-C) trimerisation domain and any linkers of the Flag-TNC-CD70 construct
B10: human-mouse CD70 chimera chim-2 (Flag-TNC-CD70) (ligand, not shown: small tags and cut ends)
chain: B7 chain with L35T, D41E, K42E, Q44H, R49Q, I52L, M54R, V55L, I63N
notes: also called chimera 2
B11: human-mouse CD70 chimera chim-2.2 (Flag-TNC-CD70) (ligand)
chain: B7 chain with L35T, D41E, K42E, Q44H
notes: also called chimera 2.2; not shown: N-terminal Flag tag, TNC trimerisation domain and any linkers of the Flag-TNC-CD70 construct
B12: 4D2 Fab (Fab, V domains shown)
VH: QVQLQESGPGLVKPSQTLSLACTVSGGSITTSYYYWSWIRQPPGKGLEWMGAIGSRGSTYYSPSLKTRTSISRDTSKNQFTLQLSSVTPEDTAVYYCARVTGEITYNSGSYYYTLNLFDYWGQGTQVTVSS
VL: QSVLTQPPSLSASPGSSVRLTCTLSSGNSVGNYDISWYQQKAGSPPRYLLYYYSDSYKNQGSGVPSRFSGSKDPSANAGLLLISGLQAEDEADYYCSVSNSGTYKPVFGGGSKLTVLG
notes: Llama-derived Fab
B13: 53A2 mAb (full-length human IgG1, HEK293) (antibody, V domains shown)
VH: EVQLVESGGGLVQPGGSLRLSCAASGFTFSVYYMNWVRQAPGKGLEWVSDINNEGGTTYYADSVKGRFTISRDNSKNSLYLQMNSLRAEDTAVYYCARDAGYSNHVPIFDSWGQGTLVTVSS
VL: QAVVTQEPSFSVSPGGTVTLTCGLKSGSVTSDNFPTWYQQTPGQAPRLLIYNTNTRHSGVPDRFSGSILGNKAALTITGAQADDEAEYFCALFISNPSVEFGGGTQLTVLG
B14: 41D12 mAb (full-length human IgG1, HEK293) (antibody, V domains shown)
VH: B13 VH
VL: B13 VL with F10L, S11T
B15: 9D1 Fab (Fab, V domains shown)
VH: B13 VH with S75A, S78T, Y80T, R87K, A88P, V93L, A97V, L117Q, T119I, S121A
VL: QAVVTQEPSLSVSPGGTVTLTCGLSSGSVTSSHYPGWYQQTPGQAPRLLIFNTNSRHSGVPSRFSGSISGNKAALTITGAQPEDEADYYCALLNIDDGSTMFGGGTHLTVLG
notes: Llama-derived Fab
B16: 35G2 mAb (full-length human IgG1, HEK293) (antibody, V domains shown)
VH: B13 VH with S75A, S78T, R87K, A88P
VL: B13 VL with A2T, D32T, T55S, E87D
B17: 40F1 mAb (full-length human IgG1, HEK293) (antibody, V domains shown)
VH: B13 VH with T57A, L117Q
VL: B13 VL
B18: human-mouse CD70 chimera chim-3 (Flag-TNC-CD70) (ligand, not shown: small tags and cut ends)
chain: HPEPHTAELQLNLTVPRKDPTLRWGAGPALGRSFTHGPELEEGHLRIHQDGLYRLHIQVTLANCSSPGSTLQHRATLAVGICSPASRSISLLRLSFHQGCTIASQRLTPLARGDTLCTNLTGTLLPSRNTDETFFGVQWVRP
notes: also called chimera 3

Columns and labels:
[1] = molecular target: T4, rhesus recombinant CD70 (FLAG-TNC-rhesus CD70) (rhesus); assay: Biacore; rhesus recombinant CD70 on chip; Fab injected
T4 construct: also called rhesus Flag-TNC-CD70

[2] = molecular target: T1, recombinant human CD70 (Flag-TNC-CD70); assay: Biacore; recombinant human CD70 on CM5 chip; Fab injected
Experimental: Off-rates of the purified llama-derived anti-CD70 blocking Fabs were determined using the Biacore. Recombinant human CD70 was immobilized on a CM5 Biacore chip. The immobilization was performed in accordance with a method provided by Biacore and by using the NHS/EDC kit (Biacore AB): after activation of the chip, a solution of 50 μg/ml of recombinant CD70 in 10 mM acetate buffer with pH of 5 was prepared and 1 μl of this solution (50ng) was injected resulting in a surface density of approximately 1000 RU.
Fabs for the CD70 mAbs ARGX-110, MDX2H5 and SGN70 were prepared by […] digestion (SGN70 and MDX69A7 are described elsewhere herein, MDX2H5, also referred to as MDX1411, is described in WO2008/074004 FIGS. 1A and 1B). Fabs, at a concentration of approximately 100-400 μg/ml, were diluted 6-fold in hepes-buffered saline (0.1M Hepes, 1.5M NaCl, 30 mM EDTA, 0.5% v/v surfactant P20). They were injected (30 μl) and passed through the flow cells at a flow rate of 30 μl/min. After binding of the Fab to CD70, the off-rate was monitored for a period of 10 minutes. After the dissociation, the flow cell surfaces were regenerated by injecting 5 μl of 10 mM NaOH. Sometimes multiple injections of NaOH were needed to regenerate the surfaces depending on the affinity of the Fabs. Off-rate analysis was done by applying the BIAevaluation software. First, the sensogram of the blank runs were subtracted from those obtained with the coated flow cell. […] Moreover, the off-rate of CD27 for CD70 was determined as well.

[3] = molecular target: T1, recombinant human CD70 (Flag-TNC-CD70); assay: inhibition ELISA: Flag-TNC-CD70 captured by anti-Flag mAb, Fab titrated, remaining binding of CD27-Fc detected
Experimental: From selected phage transfected into TG1, individual colonies were picked randomly for growth in 96 well plates. After IPTG induction according to standard protocols periplasmic fractions (penis) containing Fabs were prepared. […] In this assay, Flag-TNC-CD70 is captured by an anti-Flag mAb and binding of CD27-Fc is detected via a biotinylated anti-CD27 mAb and strep-HRP in the absence or presence of CD70 Fabs (FIGS. 2 and 3) or CD70 mAbs (FIG. 4). In FIG. 2B it can be seen that 27B3, which has an identical VH as 9D1, but contains a somewhat different light chain, seems to block binding of CD27 to CD70 more efficiently, which was in line with the better off rate of this Fab as measured on Biacore (data not shown). Table 3 indicates the blocking potency (expressed as IC50) for the various llama-human chimeric mAbs tested in the CD70 inhibition ELISA. […] FIG. 3 is a composite of an experiment testing llama CD70 Fabs for blocking activity (in the inhibition ELISA, see white bars) and for CD70 binding (binding ELISA, black bars). For the binding ELISA, Flag-TNC-CD70 is captured by an anti-Flag mAb and binding of the Fabs is detected using an anti-myc-HRP mAb, which recognizes the MYC tag fused to the C-terminus of the Fd fragment. For comparison purposes, known monoclonal antibodies to CD70 (SGN70 described in US 2010/0129362 A1, clone 1F6; and MDX69A7 described in WO2008/074004 FIGS. 5A and 5B) were tested in parallel. […] Of interest is clone 59D10, which as Fab has no blocking activity, but when converted into a chimeric IgG was antagonistic (see Table 3). Amino acid sequences of the VH and VL domains of binding and blocking llama-derived Fab clones are shown elsewhere herein (Tables 6-9).

[4] = molecular target: T2, recombinant human CD27 Fc chimera …; assay: ELISA; captured Flag-TNC-CD70
[5] = molecular target: T3, human CD70 expressed on the surface of …; assay: cell-based or functional assay

Row | Binder | koff [1] [s⁻¹] | koff [2] [s⁻¹] | binding result [4] | other results
1 | B1 | 4e-05 | 0.0001 | – | –
2 | B2 | 0.00061 | 0.00028 | – | IC50 (read off the curve) [3]: ~4 nM
3 | B3 | 0.00018 | 0.00018 | – | IC50 (read off the curve) [3]: ~2 nM
4 | B4 | 0.0002 | 0.00019 | – | –
5 | B5 | 0.0005 | 8e-05 | – | IC50 (read off the curve) [3]: ~0.2 µg/mL
6 | B6 | – | – | binds | –
7 | B7 | – | – | binds | –
8 | B8 | – | – | binds | –
9 | B9 | – | – | binds | –
10 | B10 | – | – | binds | –
11 | B11 | – | – | binds | –
12 | B12 | 0.00029 | 0.00033 | – | IC50 (read off the curve) [3]: ~1 nM
13 | B13 | – | – | – | Raji co-culture assay IC50 relative to 27B3 [5]: 0.8 fold of 27B3
14 | B14 | – | – | – | Raji co-culture assay IC50 relative to 27B3 [5]: 1.2 fold of 27B3
15 | B15 | 0.0002 | 0.00048 | – | IC50 (read off the curve) [3]: ~0.2 µg/mL
16 | B16 | – | – | – | Raji co-culture assay IC50 relative to 27B3 [5]: 1.4 fold of 27B3
17 | B17 | – | – | – | Raji co-culture assay IC50 relative to 27B3 [5]: 1.8 fold of 27B3
18 | B18 | – | – | binds | –
